Numbered stars: 1 amine (or outer) side, 2 acyl side, 3 side chain; on linkers, the order of the positions; unused ones are H or OH. Bridge positions count the residues as written; N and C are the ends. Side chains are listed from the residue outwards. Ends that are not written are not given here. * marks the point of attachment. C20 diacid = O=C(O)CCCCCCCCCCCCCCCCCCC(=O)*; γGlu = O=C(O)[C@H](CCC(=O)[*:2])N[*:1]; AEEA = NCCOCCOCC(=O)O
T1: rat amylin receptor (rat calcitonin receptor + rat RAMP 3) (rat, UniProt P32214 25-516; Q9JJ73 23-147)
T1 construct: whole, on cells; Cell membranes of transiently transfected BHK tk'ts 13 cells (Assay VI); also called rAmylin-R; rat amylin 3(a) receptor
T1 sequence (looked up) 1: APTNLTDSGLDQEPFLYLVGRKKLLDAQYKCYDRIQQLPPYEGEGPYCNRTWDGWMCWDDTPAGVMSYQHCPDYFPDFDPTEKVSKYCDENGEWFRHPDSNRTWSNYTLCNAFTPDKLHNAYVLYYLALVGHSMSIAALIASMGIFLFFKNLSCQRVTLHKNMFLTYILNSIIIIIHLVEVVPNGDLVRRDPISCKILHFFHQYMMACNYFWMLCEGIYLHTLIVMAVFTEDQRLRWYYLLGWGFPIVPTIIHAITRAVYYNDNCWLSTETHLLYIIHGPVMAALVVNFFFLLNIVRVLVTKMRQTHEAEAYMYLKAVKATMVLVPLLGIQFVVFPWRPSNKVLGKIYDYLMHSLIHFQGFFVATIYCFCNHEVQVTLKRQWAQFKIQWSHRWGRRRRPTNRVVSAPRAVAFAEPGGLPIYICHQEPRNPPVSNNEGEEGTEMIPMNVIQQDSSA
T1 sequence (looked up) 2: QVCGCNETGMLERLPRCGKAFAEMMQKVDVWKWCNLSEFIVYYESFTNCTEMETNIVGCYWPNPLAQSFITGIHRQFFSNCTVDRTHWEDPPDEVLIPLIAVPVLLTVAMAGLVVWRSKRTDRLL

T2: human calcitonin receptor (human, UniProt P30988 25-474)
T2 construct: whole, on cells; Cell membranes of a stably transfected BHK cell line (Assay VII); also called hCTR; hCT
T2 sequence (looked up): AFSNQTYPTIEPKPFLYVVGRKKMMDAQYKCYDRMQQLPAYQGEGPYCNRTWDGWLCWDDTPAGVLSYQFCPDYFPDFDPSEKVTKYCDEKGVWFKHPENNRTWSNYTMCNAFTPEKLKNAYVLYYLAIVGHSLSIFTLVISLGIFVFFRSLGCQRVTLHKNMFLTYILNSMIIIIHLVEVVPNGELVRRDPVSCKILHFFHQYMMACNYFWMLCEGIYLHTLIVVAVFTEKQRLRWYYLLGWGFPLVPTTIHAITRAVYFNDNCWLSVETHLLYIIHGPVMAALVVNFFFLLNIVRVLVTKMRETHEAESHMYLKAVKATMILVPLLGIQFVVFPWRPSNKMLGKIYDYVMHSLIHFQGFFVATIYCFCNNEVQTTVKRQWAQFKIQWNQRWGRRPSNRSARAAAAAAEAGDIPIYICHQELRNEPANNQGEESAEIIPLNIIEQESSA

T3: rat calcitonin receptor (rat, UniProt P32214 25-516)
T3 construct: whole, on cells; Cell membranes of transiently transfected BHK tk'ts 13 cells (Assay VIII); also called rCTR; rCT
T3 sequence (looked up): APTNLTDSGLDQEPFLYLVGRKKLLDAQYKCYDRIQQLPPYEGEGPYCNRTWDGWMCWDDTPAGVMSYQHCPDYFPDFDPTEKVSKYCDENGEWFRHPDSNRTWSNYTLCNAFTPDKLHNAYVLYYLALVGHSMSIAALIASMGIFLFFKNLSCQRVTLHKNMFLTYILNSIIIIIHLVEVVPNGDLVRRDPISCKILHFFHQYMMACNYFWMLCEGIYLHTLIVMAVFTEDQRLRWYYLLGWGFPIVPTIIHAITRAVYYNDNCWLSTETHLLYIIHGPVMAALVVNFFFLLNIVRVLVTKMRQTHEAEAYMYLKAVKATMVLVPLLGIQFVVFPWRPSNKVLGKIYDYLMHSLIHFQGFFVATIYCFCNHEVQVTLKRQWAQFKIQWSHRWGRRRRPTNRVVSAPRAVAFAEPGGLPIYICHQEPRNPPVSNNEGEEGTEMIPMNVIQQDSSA


What was measured:
[1] = target: T1, rat amylin receptor (rat calcitonin …); assay: SPA competition vs 125I-rat amylin, membranes with rat CTR + rat RAMP3 (Assay VI)
[2] = target: T2, human calcitonin receptor; assay: ratio IC50 human calcitonin receptor / IC50 human amylin receptor
Protocol: The resulting pellet was resuspended, homogenized and centrifuged (20.000 rpm, 15 min) in a buffer containing 20 mM Na-HEPES and 0.1 mM EDTA (pH 7.4, buffer 2). The resulting pellet was resuspended in buffer 2 and protein concentration was measured (BCA protein Assay, Pierce). The homogenate was kept cold during the whole procedure. The membranes were kept at −80° C. until use. The assay was performed in a 384 well Optiplate (PerkinElmer) in a total volume of 40 ul. Membranes were mixed with SPA beads. Final concentration of membranes 35 ng/μL final and SPA beads was 0.05 mg/well. Test-compounds were dissolved in DMSO and further diluted in assay buffer (50 mM Hepes, pH 7.4, 1 mM CaCl2, 5 mM MgCl₂, 0.1% OA and 0.02% Tween20). […] The final mixture was incubated with shaking at 400 rpm for 120 min at 25° C. prior to centrifugation (1500 rpm, 10 min). Samples were analyzed on TopCounter™ (Packard). The IC₅₀ was calculated using (one site binding competition analysis) GraphPad Prism5 as a measure of receptor affinity.
Membranes were prepared in the following way; the cells were rinsed with PBS and incubated with Versene for approximately 5 min before harvesting. The cells were flushed with PBS and the cell-suspension was centrifuged for 5 min at 1000 rpm. Cells were homogenized (Ultrathurrax) in a buffer containing 20 mM Na-HEPES and 10 mM EDTA (pH 7.4) and centrifuged at 20.000 rpm for 15 min. The resulting pellet was resuspended, homogenized and centrifuged (20.000 rpm, 15 min) in a buffer containing 20 mM Na-HEPES and 0.1 mM EDTA (pH 7.4, buffer 2). The resulting pellet was resuspended in buffer 2 and protein concentration was measured (BCA protein Assay, Pierce). The homogenate was kept cold during the whole procedure. The membranes were kept at −80° C. until use. Assay was performed in a 384 well Optiplate (PerkinElmer) in a total volume of 40 ul. Membranes were mixed with SPA beads.

[3] = target: T3, rat calcitonin receptor; assay: SPA competition vs 125I-calcitonin, membranes with rat CTR (Assay VIII)
[4] = target: T3, rat calcitonin receptor; assay: ratio IC50 rat calcitonin receptor / IC50 rat amylin receptor

Binder	IC50 [1] [nM]	Ratio hCT/hAmylin binding [2]	IC50 [3] [nM]	Ratio rCT/rAmylin binding [4]
K([AEEA-γGlu-C20 diacid])CNTATCATQRLANFLRHSSPNFGAIPSSTNVGSETY-NH2 (disulfide 2-7; N-terminus assumed; SMILES CC[C@H](C)[C@H](NC(=O)[C@H](C)NC(=O)CNC(=O)[C@H](Cc1ccccc1)NC(=O)[C@H](CC(N)=O)NC(=O)[C@@H]1CCCN1C(=O)[C@H](CO)NC(=O)[C@H](CO)NC(=O)[C@H](Cc1c[nH]cn1)NC(=O)[C@H](CCCNC(=N)N)NC(=O)[C@H](CC(C)C)NC(=O)[C@H](Cc1ccccc1)NC(=O)[C@H](CC(N)=O)NC(=O)[C@H](C)NC(=O)[C@H](CC(C)C)NC(=O)[C@H](CCCNC(=N)N)NC(=O)[C@H](CCC(N)=O)NC(=O)[C@@H](NC(=O)[C@H](C)NC(=O)[C@@H]1CSSC[C@H](NC(=O)[C@@H](N)CCCCNC(=O)COCCOCCNC(=O)CC[C@H](NC(=O)CCCCCCCCCCCCCCCCCCC(=O)O)C(=O)O)C(=O)N[C@@H](CC(N)=O)C(=O)N[C@@H]([C@@H](C)O)C(=O)N[C@@H](C)C(=O)N[C@@H]([C@@H](C)O)C(=O)N1)[C@@H](C)O)C(=O)N1CCC[C@H]1C(=O)N[C@@H](CO)C(=O)N[C@@H](CO)C(=O)N[C@H](C(=O)N[C@@H](CC(N)=O)C(=O)N[C@H](C(=O)NCC(=O)N[C@@H](CO)C(=O)N[C@@H](CCC(=O)O)C(=O)N[C@H](C(=O)N[C@@H](Cc1ccc(O)cc1)C(N)=O)[C@@H](C)O)C(C)C)[C@@H](C)O, Acylated analogue of human amylin; also called compound 26)	0.491	47.5	152	309
K([γGlu-C20 diacid])CNTATCATQRLANFLRHSSPNFGAIPSSTNVGSETY-NH2 (disulfide 2-7; N-terminus assumed; SMILES CC[C@H](C)[C@H](NC(=O)[C@H](C)NC(=O)CNC(=O)[C@H](Cc1ccccc1)NC(=O)[C@H](CC(N)=O)NC(=O)[C@@H]1CCCN1C(=O)[C@H](CO)NC(=O)[C@H](CO)NC(=O)[C@H](Cc1c[nH]cn1)NC(=O)[C@H](CCCNC(=N)N)NC(=O)[C@H](CC(C)C)NC(=O)[C@H](Cc1ccccc1)NC(=O)[C@H](CC(N)=O)NC(=O)[C@H](C)NC(=O)[C@H](CC(C)C)NC(=O)[C@H](CCCNC(=N)N)NC(=O)[C@H](CCC(N)=O)NC(=O)[C@@H](NC(=O)[C@H](C)NC(=O)[C@@H]1CSSC[C@H](NC(=O)[C@@H](N)CCCCNC(=O)CC[C@H](NC(=O)CCCCCCCCCCCCCCCCCCC(=O)O)C(=O)O)C(=O)N[C@@H](CC(N)=O)C(=O)N[C@@H]([C@@H](C)O)C(=O)N[C@@H](C)C(=O)N[C@@H]([C@@H](C)O)C(=O)N1)[C@@H](C)O)C(=O)N1CCC[C@H]1C(=O)N[C@@H](CO)C(=O)N[C@@H](CO)C(=O)N[C@H](C(=O)N[C@@H](CC(N)=O)C(=O)N[C@H](C(=O)NCC(=O)N[C@@H](CO)C(=O)N[C@@H](CCC(=O)O)C(=O)N[C@H](C(=O)N[C@@H](Cc1ccc(O)cc1)C(N)=O)[C@@H](C)O)C(C)C)[C@@H](C)O, Acylated analogue of human amylin; also called compound 27) [N^ε1-[(4S)-4-carboxy-4-(19-carboxynonadecanoylamino)butanoyl]-[Arg17,Pro21,Pro27,Glu35]-h-amylin]	0.614	41.3	90.2	147
K([γGlu-γGlu-C20 diacid])CNTATCATQRLADFLRHSSPNFGAPLSSTNVGSDTY-NH2 (disulfide 2-7; N-terminus assumed; SMILES CC(C)C[C@H](NC(=O)[C@H](CCCNC(=N)N)NC(=O)[C@H](CCC(N)=O)NC(=O)[C@@H](NC(=O)[C@H](C)NC(=O)[C@@H]1CSSC[C@H](NC(=O)[C@@H](N)CCCCNC(=O)CC[C@H](NC(=O)CC[C@H](NC(=O)CCCCCCCCCCCCCCCCCCC(=O)O)C(=O)O)C(=O)O)C(=O)N[C@@H](CC(N)=O)C(=O)N[C@@H]([C@@H](C)O)C(=O)N[C@@H](C)C(=O)N[C@@H]([C@@H](C)O)C(=O)N1)[C@@H](C)O)C(=O)N[C@@H](C)C(=O)N[C@@H](CC(=O)O)C(=O)N[C@@H](Cc1ccccc1)C(=O)N[C@@H](CC(C)C)C(=O)N[C@@H](CCCNC(=N)N)C(=O)N[C@@H](Cc1c[nH]cn1)C(=O)N[C@@H](CO)C(=O)N[C@@H](CO)C(=O)N1CCC[C@H]1C(=O)N[C@@H](CC(N)=O)C(=O)N[C@@H](Cc1ccccc1)C(=O)NCC(=O)N[C@@H](C)C(=O)N1CCC[C@H]1C(=O)N[C@@H](CC(C)C)C(=O)N[C@@H](CO)C(=O)N[C@@H](CO)C(=O)N[C@H](C(=O)N[C@@H](CC(N)=O)C(=O)N[C@H](C(=O)NCC(=O)N[C@@H](CO)C(=O)N[C@@H](CC(=O)O)C(=O)N[C@H](C(=O)N[C@@H](Cc1ccc(O)cc1)C(N)=O)[C@@H](C)O)C(C)C)[C@@H](C)O, Acylated analogue of human amylin; also called compound 1)	1.3	27.6	135	104
K([γGlu-C20 diacid])CNTATCATQRLANFLRHSSPNFGAIPSSTNVGSKTY-NH2 (disulfide 2-7; N-terminus assumed; SMILES CC[C@H](C)[C@H](NC(=O)[C@H](C)NC(=O)CNC(=O)[C@H](Cc1ccccc1)NC(=O)[C@H](CC(N)=O)NC(=O)[C@@H]1CCCN1C(=O)[C@H](CO)NC(=O)[C@H](CO)NC(=O)[C@H](Cc1c[nH]cn1)NC(=O)[C@H](CCCNC(=N)N)NC(=O)[C@H](CC(C)C)NC(=O)[C@H](Cc1ccccc1)NC(=O)[C@H](CC(N)=O)NC(=O)[C@H](C)NC(=O)[C@H](CC(C)C)NC(=O)[C@H](CCCNC(=N)N)NC(=O)[C@H](CCC(N)=O)NC(=O)[C@@H](NC(=O)[C@H](C)NC(=O)[C@@H]1CSSC[C@H](NC(=O)[C@@H](N)CCCCNC(=O)CC[C@H](NC(=O)CCCCCCCCCCCCCCCCCCC(=O)O)C(=O)O)C(=O)N[C@@H](CC(N)=O)C(=O)N[C@@H]([C@@H](C)O)C(=O)N[C@@H](C)C(=O)N[C@@H]([C@@H](C)O)C(=O)N1)[C@@H](C)O)C(=O)N1CCC[C@H]1C(=O)N[C@@H](CO)C(=O)N[C@@H](CO)C(=O)N[C@H](C(=O)N[C@@H](CC(N)=O)C(=O)N[C@H](C(=O)NCC(=O)N[C@@H](CO)C(=O)N[C@@H](CCCCN)C(=O)N[C@H](C(=O)N[C@@H](Cc1ccc(O)cc1)C(N)=O)[C@@H](C)O)C(C)C)[C@@H](C)O, Acylated analogue of human amylin; also called compound 35) [N^ε1-[(4S)-4-carboxy-4-(19-carboxynonadecanoylamino)butanoyl]-[Arg17,Pro21,Pro27,Lys35]-h-amylin]	0.948	50.3	61.7	65.1

Reference: patent US20140087995A1 (published 2014)
